Experimental findings from patent US8889827B2, “Opiorphin peptide derivatives as potent inhibitors of enkephalin-degrading ectopeptidases” (Institut Pasteur, priority 2008, dated 2014) are described below.

Format in all cases: biochemical
One experiment concerns the target T1, human NEP (Homo sapiens, UniProt P08473).
T1 construct: devoid of their respective N-terminal cytosol and transmembrane segment; purchased R&D Systems
Put plainly: Screening of opiorphin peptide-derivatives on hNEP (endopeptidase and carboxydipeptidase activities). The conditions noted are these: for inhibitory potency towards human NEP (in words): screening, 50 μM final concentration, triplicate. Here is the method: (§1) According to conditions of initial velocity measurement: the time, pH and temperature of incubation as well as enzyme and substrate concentrations were defined for each assay. Hydrolysis of substrates was measured by real-time monitoring their metabolism rate by the two peptidases in the presence and absence of tested inhibitory compound (concentrations ranging from 1 to 50 μM). These were added to the preincubation medium. The background rate of substrate autolysis representing the fluorescent signal obtained in the absence of enzyme was subtracted to calculate the initial velocities in RFU (Relative Fluorescent Unit)/min.
(§2) (2.3 min-interval successive measures) by using a fluorimeter microplate reader (monochromator Infinite 200-Tecan) at 320 nm and 420 nm excitation and emission wavelengths, respectively.
Using black half-area 96 well microplate, the standard reaction consisted of enzyme (2.5 ng) in 100 mM Tris-HCl pH 6.5 containing 50 mM NaCl (100 μl final volume). The substrate (4 μM final concentration) was added after preincubation for 10 min and the kinetics of appearance of the fluorescent signal (RFU) was directly analyzed for 40 min at 28° C. (2.3 min-interval successive measures) by using the fluorimeter reader at 320 nm excitation and 420 nm emission wavelengths.
In addition, the intramolecularly quenched fluorogenic peptide, Mca-BK2 (10 μM), was submitted to hydrolysis by 5 ng rhNEP under the same experimental conditions as those described behind.
(§3) Compounds were tested in triplicate at 50 μM final concentration.

For experiment [1], the target named is T2, membrane-bound human NEP expressed by LNCaP epithelial cells (Homo sapiens, UniProt P08473).
T2 construct: human cell membranes as source of hNEP; endogenous in cells; host or cells: LNCaP epithelial cells (membranes)
T2 sequence (P08473 whole entry): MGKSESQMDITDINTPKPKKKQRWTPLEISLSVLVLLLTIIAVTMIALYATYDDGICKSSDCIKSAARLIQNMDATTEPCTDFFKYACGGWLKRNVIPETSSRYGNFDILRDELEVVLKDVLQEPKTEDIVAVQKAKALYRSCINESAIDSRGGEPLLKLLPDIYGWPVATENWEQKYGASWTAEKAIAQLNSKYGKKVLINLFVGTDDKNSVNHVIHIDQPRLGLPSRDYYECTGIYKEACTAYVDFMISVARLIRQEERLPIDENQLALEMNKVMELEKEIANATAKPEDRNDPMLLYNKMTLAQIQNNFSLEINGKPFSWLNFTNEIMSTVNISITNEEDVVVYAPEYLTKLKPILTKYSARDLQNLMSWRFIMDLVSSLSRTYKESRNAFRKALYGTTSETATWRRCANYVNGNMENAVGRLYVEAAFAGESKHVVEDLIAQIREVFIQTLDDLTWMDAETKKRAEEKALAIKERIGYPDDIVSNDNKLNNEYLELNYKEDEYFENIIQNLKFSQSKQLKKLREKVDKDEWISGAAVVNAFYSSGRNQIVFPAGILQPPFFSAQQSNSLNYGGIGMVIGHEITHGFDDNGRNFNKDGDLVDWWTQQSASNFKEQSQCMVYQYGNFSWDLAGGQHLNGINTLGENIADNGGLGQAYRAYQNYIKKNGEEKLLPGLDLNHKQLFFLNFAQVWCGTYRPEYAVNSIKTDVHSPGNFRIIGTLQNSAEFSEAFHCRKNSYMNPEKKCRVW
Put plainly: Substance P cleavage by membrane-bound hNEP of human cell membranes. The conditions noted are these: increase vs Opiorphin native peptide in the same test.

Experiment [2] addresses T3, recombinant human NEP (rhNEP-Endopeptidase activity) (Homo sapiens, UniProt P08473).
T3 construct: devoid of their respective N-terminal cytosol and transmembrane segment; purchased R&D Systems
Put plainly: NEP-endopeptidase activity, FRET substrate Abz-dR-G-L-EDDnp. To be noted: screening at 50 μM and IC50 comparison, NEP endopeptidase versus AP-N. The protocol: (§4) Formal kinetic analysis was performed for each assay using real-time fluorescence monitoring of specific substrate hydrolysis.
(§5) Recombinant human NEP and recombinant human AP-N (devoid of their respective N-terminal cytosol and transmembrane segment) that were purchased from R&D Systems, were used as pure source of peptidase.
as §1, §2

The target in a further experiment is T4, recombinant human AP-N (Homo sapiens, UniProt P15144).
T4 construct: devoid of their respective N-terminal cytosol and transmembrane segment; purchased R&D Systems
T4 sequence (P15144 33-967 limits assumed): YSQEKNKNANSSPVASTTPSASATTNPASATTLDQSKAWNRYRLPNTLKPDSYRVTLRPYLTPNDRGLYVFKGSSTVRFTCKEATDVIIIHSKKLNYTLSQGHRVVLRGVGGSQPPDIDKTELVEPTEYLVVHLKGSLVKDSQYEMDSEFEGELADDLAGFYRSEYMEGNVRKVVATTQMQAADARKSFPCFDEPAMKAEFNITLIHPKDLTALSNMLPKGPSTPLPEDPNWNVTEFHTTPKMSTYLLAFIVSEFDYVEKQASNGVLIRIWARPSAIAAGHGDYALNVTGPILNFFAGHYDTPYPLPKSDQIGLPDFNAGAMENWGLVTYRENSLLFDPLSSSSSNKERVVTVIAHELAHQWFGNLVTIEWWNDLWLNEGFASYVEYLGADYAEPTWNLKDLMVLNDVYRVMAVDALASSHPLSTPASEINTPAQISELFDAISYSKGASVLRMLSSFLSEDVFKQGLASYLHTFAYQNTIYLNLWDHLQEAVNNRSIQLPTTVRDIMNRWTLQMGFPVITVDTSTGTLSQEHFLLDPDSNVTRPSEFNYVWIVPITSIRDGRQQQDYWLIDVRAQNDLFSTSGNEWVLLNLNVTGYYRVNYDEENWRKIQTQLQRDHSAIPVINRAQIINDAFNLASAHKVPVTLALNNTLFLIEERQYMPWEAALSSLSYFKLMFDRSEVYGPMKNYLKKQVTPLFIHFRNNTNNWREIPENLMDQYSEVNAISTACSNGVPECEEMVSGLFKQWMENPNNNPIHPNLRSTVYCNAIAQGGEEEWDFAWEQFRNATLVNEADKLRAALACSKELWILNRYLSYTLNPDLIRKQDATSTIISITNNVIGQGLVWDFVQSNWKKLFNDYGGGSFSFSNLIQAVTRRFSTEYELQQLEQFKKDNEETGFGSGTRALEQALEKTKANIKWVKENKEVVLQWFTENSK
Put plainly: AP-N-ectopeptidase activity, Ala-Mca substrate. The conditions noted are these: for inhibitory potency towards human AP-N (in words): screening, 50 μM final concentration, triplicate; for inhibitory preference for human AP-N (in words): screening at 50 μM, AP-N versus NEP. Here is the method:
as §4, §5
FRET is the distance-dependant transfer of energy from a donor fluorophore (Abz=ortho-aminobenzoyl or Mca=7-methoxycoumarin-4-yl-acetyl) to an acceptor fluorophore (DnpOH=2,4-dinitrophenyl or EDDnp=2,4-dinitrophenyl ethylenediamine). • L-alanine-Mca, Ala-Mca, a fluorogenic substrate for measuring aminopeptidase activity was purchased from Sigma.
as §1
Measurement of AP-N-ectopeptidase activity using Ala-Mca substrate. Using black half-area 96 well microplate the standard reaction consisted of enzyme (4 ng) in 100 mM Tris-HCl pH 7.0 (100 μl final volume).
as §3

Non-standard residues stand in square brackets, D forms with d. No end group written: not given here.

T1 sequence (P08473 52-750 limits assumed): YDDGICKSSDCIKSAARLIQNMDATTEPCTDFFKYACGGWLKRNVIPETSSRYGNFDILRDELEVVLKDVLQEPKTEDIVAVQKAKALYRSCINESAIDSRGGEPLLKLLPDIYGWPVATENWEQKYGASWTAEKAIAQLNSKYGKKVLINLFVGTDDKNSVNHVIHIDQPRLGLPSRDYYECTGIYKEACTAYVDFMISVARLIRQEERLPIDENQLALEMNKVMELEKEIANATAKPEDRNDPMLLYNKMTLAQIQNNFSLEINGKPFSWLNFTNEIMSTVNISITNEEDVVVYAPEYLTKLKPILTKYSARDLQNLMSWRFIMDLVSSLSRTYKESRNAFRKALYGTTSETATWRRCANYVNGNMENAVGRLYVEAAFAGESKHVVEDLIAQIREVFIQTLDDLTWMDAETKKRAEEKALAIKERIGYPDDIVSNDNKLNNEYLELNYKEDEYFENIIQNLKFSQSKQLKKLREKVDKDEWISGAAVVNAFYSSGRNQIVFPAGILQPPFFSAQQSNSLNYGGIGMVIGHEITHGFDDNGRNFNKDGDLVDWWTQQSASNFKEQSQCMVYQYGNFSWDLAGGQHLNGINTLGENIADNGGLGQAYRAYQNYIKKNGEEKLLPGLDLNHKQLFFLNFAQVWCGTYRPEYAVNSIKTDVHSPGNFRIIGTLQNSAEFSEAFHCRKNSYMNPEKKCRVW
T3 sequence (P08473 52-750 limits assumed): as above

Take `N=C(N)NCCC[C@H](NC(=O)[C@H](CO)NC(=O)[C@H](Cc1ccccc1)NC(=O)[C@H](CCCNC(=N)N)NC(=O)[C@H](CCC(N)=O)NC(=O)[C@@H](N)CS)C(=O)O` [CQRFSR-COOH, CQRFSR]: the “reinforced inhibitory potency towards hNEP compared to QRFSR native peptide” value at human NEP (increase vs QRFSR native peptide) was found to be 5 fold. For the same compound, on human NEP, the “inhibitory potency towards human NEP (in words)” value is listed as “potent dual inhibitors”.

On to `CCCCCCCC(=O)OC[C@H](NC(=O)[C@H](Cc1ccccc1)NC(=O)[C@H](CCCNC(=N)N)NC(=O)[C@H](CCC(N)=O)NC(=O)CCCCCCNC(=O)[C@@H](N)CS)C(=O)N[C@@H](CCCNC(=N)N)C(=O)O` [C[PE6]QRF[S—O-Octanoyl]R, C—(—HN—(CH2)6—CO-)-QRF—S(O-octanoyl)-R], for which the “increase inhibitory potency compared to Opiorphin native peptide, Substance P test” value in experiment [1] is “at least 5 fold”.

As for `N=C(N)NCCC[C@H](NC(=O)[C@H](CO)NC(=O)[C@H](Cc1ccccc1)NC(=O)[C@H](CCCNC(=N)N)NC(=O)[C@H](CCC(N)=O)NC(=O)CCCCCCCCCCCCNC(=O)[C@@H](N)Cc1ccc(O)cc1)C(=O)O` [Y(PE12)QRFSR-COOH, Y—(—HN—(CH2)12—CO-)-QRFSR], the “inhibitory potency towards human NEP (in words)” value against human NEP was “potent dual inhibitors”. The “inhibitory preference for human NEP endopeptidase activity (in words)” value in experiment [2] is given as “inhibitory preference for human NEP endopeptidase activity”. Moreover, on recombinant human AP-N, the “inhibitory potency towards human AP-N (in words)” value is “potent dual inhibitors”.

Regarding `N=C(N)NCCC[C@H](NC(=O)[C@H](CO)NC(=O)[C@H](Cc1ccccc1)NC(=O)[C@H](CCCNC(=N)N)NC(=O)[C@H](CCC(N)=O)NC(=O)[C@@H](N)CSSC[C@H](N)C(=O)N[C@@H](CCC(N)=O)C(=O)N[C@@H](CCCNC(=N)N)C(=O)N[C@@H](Cc1ccccc1)C(=O)N[C@@H](CO)C(=O)N[C@@H](CCCNC(=N)N)C(=O)O)C(=O)O` [[CQRFSR]2], the “increase inhibitory potency towards hNEP-Endo and CarboxyDi-peptidase activities compared to CQRFSR monomer peptide” value at human NEP (increase vs CQRFSR monomer) is listed as “at least 2 fold”.

QHNPR [NH2-QHNPR-COOH]: in the experiment with human NEP, the “inhibitory potency towards hNEP compared to Opiorphin-QRFSR native peptide (in words)” value is on record as “weak inhibitory potency” and the “inhibitory potency towards human NEP (in words)” value is given as “weak inhibitory potency”. Besides, in the experiment with recombinant human AP-N, the “inhibitory potency towards hAP-N compared to Opiorphin-QRFSR native peptide (in words)” value is given as “equivalent inhibitory potency” and the “inhibitory preference for human AP-N (in words)” value is “inhibitory preference for human AP-N”.

Turning to QKFSR, in the experiment with human NEP, the “inhibitory potency towards hNEP compared to Opiorphin-QRFSR native peptide (in words)” value is “light reduction in inhibitory potency”.

Take QRFPR: in the experiment with human NEP, the “inhibitory potency towards hNEP compared to Opiorphin-QRFSR native peptide (in words)” value is “weak inhibitory potency” and the “inhibitory potency towards human NEP (in words)” value is reported as “weak inhibitory potency”. Moreover, in the experiment with recombinant human AP-N, the “inhibitory potency towards hAP-N compared to Opiorphin-QRFSR native peptide (in words)” value is recorded as “equivalent inhibitory potency” and the “inhibitory preference for human AP-N (in words)” value was “inhibitory preference for human AP-N”.

Turning to QRFSK, the “inhibitory potency towards hNEP compared to Opiorphin-QRFSR native peptide (in words)” value with human NEP was “equivalent inhibitory potency”.

QRGPR [NH2-QRGPR-COOH]: in the experiment with human NEP, the “inhibitory potency towards hNEP compared to Opiorphin-QRFSR native peptide (in words)” value is given as “weak inhibitory potency” and the “inhibitory potency towards human NEP (in words)” value was “weak inhibitory potency”. Moreover, in the experiment with recombinant human AP-N, the “inhibitory potency towards hAP-N compared to Opiorphin-QRFSR native peptide (in words)” value is listed as “equivalent inhibitory potency” and the “inhibitory preference for human AP-N (in words)” value is “inhibitory preference for human AP-N”.

Consider “dR-dS-dF-dR-dQ ([dR][dS][dF][dR][dQ]) [NH2-dRdSdFdRdQ-COOH]”, for which the “inhibitory potency towards human NEP (in words)” value in the experiment with human NEP was “did not display significant inhibitory activity”. Also, in the experiment with recombinant human AP-N, the “inhibitory preference for human AP-N (in words)” value is listed as “preference for AP-N activity” and the “inhibitory potency towards human AP-N (in words)” value is listed as “did not display significant inhibitory activity”.
